Results: patent US20130012432A1 (Novo Nordisk, published 2013)
Positions of bridges follow the written chain, without caps; N, C: chain ends. Non-standard residues stand in square brackets, D forms with d. Groups on a side chain read outwards from the residue. Primed or numbered codes have the meaning given here. *: point of attachment. X2 = (2-(2-(16-(tetrazol-5-yl)hexadecanoylamino)ethoxy)ethoxy)acetyl, O=C(CCCCCCCCCCCCCCCc1nn[nH]n1)NCCOCCOCC(=O)*; X5 = NH(2-(2-(2-(17-carboxyheptadecanoylamino)ethoxy)ethoxy)ethyl), O=C(O)CCCCCCCCCCCCCCCCC(=O)NCCOCCOCCN*; X6 = (2-(2-(17-carboxyheptadecanoylamino)ethoxy)ethoxy)acetyl, O=C(O)CCCCCCCCCCCCCCCCC(=O)NCCOCCOCC(=O)*; X3 = (2-(2-(15-carboxypentadecanoylamino)ethoxy)ethoxy)acetyl, O=C(O)CCCCCCCCCCCCCCC(=O)NCCOCCOCC(=O)*; biscarboxymethyl = Lys(biscarboxymethyl) = Nepsilon-bis(carboxymethyl)-L-lysine; biscarboxymethyl(4) = Lys(biscarboxymethyl) = N6-bis(carboxymethyl)-L-lysine; bis(carboxymethyl) = Lys(biscarboxymethyl) = N6-bis(carboxymethyl)-L-lysine; Palmitoyl(16-(5-tetrazolyl)) = O=C(CCCCCCCCCCCCCCCc1nnn[nH]1)*; biscarboxymethyl(3) = Nepsilon-bis(carboxymethyl) on Lys; Lys(CH2CO2H)2 = N[C@@H](CCCCN(CC(=O)O)CC(=O)O)C(=O)O; C18 diacid = O=C(O)CCCCCCCCCCCCCCCCC(=O)*; NTA = O=C(O)CN(CC(=O)O)CC(=O)*; hCys = N[C@@H](CCS)C(=O)O; Orn = NCCC[C@H](N)C(=O)O; Dab = NCC[C@H](N)C(=O)O; Dap = NC[C@H](N)C(=O)O; AEEA = NCCOCCOCC(=O)O

Legend:
[1] = biological target: T1, MC1 receptor (UniProt Q01726 1-317, limits assumed); assay: 125I-NDP-α-MSH displacement, BHK-MC1 membranes (Assay IV);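 note: membrane incubations stopped by filtration, retained radioactivity counted, Ki fitted by nonlinear regression to binding curves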
T1 construct: whole, on cells; also called melanocortin receptor subtype 1; melanocortin receptor 1
Procedure: The MC1 receptor binding assay was performed on BHK cell membranes stably expressing the MC1 receptor. […] Test compounds were dissolved in DMSO. […] Alternatively, HSA may be substituted with ovalbumin. The samples were incubated at 30° C. for 90 min. in Costar round-bottom microtiter plates. Incubation was terminated by filtration on a Packard harvester filtermate. […] The filters were washed with ice-cold 0.9% NaCl 8-10 times. […] The plates were counted in a Topcounter (1 min/well).
(§1) The data were analysed by non-linear regression analysis of binding curves, using the Windows™ program GraphPad™ Prism (GraphPad Software, USA).

[2] = biological target: T2, human MC4 receptor (human, UniProt P32245 1-332); assay: 125I-NDP-α-MSH displacement, BHK-human MC4 membranes (Assay V);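 note: Filter-retained radioactivity read by gamma counting, with affinity obtained through non-linear regression fitting of the binding curves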
T2 construct: whole, on cells; Assayed as membranes of BHK cells stably expressing the receptor; also called melanocortin receptor subtype 4; melanocortin receptor 4
T2 sequence (P32245 whole entry): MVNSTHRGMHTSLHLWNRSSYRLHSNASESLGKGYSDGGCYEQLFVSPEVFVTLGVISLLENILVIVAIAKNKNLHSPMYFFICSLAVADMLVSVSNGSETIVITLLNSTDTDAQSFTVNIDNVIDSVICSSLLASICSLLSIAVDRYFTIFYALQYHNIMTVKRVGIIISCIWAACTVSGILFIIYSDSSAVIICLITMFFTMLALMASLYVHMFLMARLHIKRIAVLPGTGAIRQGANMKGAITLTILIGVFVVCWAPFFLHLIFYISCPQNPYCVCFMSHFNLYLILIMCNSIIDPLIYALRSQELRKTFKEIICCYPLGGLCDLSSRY
Procedure: The membranes were prepared from frozen or fresh cells that were homogenized in 20 mM HEPES pH 7.1, 5 mM MgCl₂ and 1 mg/ml bacitracin and centrifuged at 15000 rpm at 4° C., 10 min in a Sorvall RC 5B plus, SS-34 rotor. The supernatant was discarded, and the pellets were re-suspended in buffer, homogenized and centrifuged two more times. The final pellets were resuspended in the buffer mentioned above, and the protein concentration was measured and adjusted with buffer to 14 to 17 mg/ml and the membrane preparation were kept at −80° C. until assay. The assay was run directly on a dilution of this cell membrane suspension, without any further preparation. The BHK cell membranes are kept at −80° C. until assay, and the assay is run directly on a dilution of this cell membrane suspension, without further preparation. The suspension is diluted to give maximally 10% specific binding, i.e. to approx. 50-100 fold dilution. […] Test compounds were dissolved in DMSO and diluted in binding buffer. Radiolabelled ligand and membranes were diluted in binding buffer. The incubation was stopped by dilution with 2×100 μl ice-cold 0.9% NaCl. The radioactivity retained on the filters was counted using a Cobra II auto gamma counter.
as §1

T1 sequence (Q01726 whole entry): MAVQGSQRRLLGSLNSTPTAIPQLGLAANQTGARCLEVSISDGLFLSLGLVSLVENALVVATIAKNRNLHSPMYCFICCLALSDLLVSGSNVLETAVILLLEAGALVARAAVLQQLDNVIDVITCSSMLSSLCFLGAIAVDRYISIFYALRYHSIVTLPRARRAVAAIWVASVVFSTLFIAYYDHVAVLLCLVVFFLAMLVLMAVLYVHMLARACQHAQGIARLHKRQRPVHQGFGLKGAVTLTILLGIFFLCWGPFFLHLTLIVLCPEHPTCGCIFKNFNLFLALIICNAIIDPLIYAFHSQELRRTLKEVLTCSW

Binder | Ki [1] [µM] | Ki [2] [µM]
Ac-[hCys]H[dF]RWCPPKE[Dap](NTA)K([AEEA-Palmitoyl(16-(5-tetrazolyl))])-NH2 (disulfide 1-6; SMILES CC(=O)N[C@H]1CCSSC[C@@H](C(=O)N2CCC[C@H]2C(=O)N2CCC[C@H]2C(=O)N[C@@H](CCCCN)C(=O)N[C@@H](CCC(=O)O)C(=O)N[C@@H](CNC(=O)CN(CC(=O)O)CC(=O)O)C(=O)N[C@@H](CCCCNC(=O)COCCOCCNC(=O)CCCCCCCCCCCCCCCc2nnn[nH]2)C(N)=O)NC(=O)[C@H](Cc2c[nH]c3ccccc23)NC(=O)[C@H](CCCNC(=N)N)NC(=O)[C@@H](Cc2ccccc2)NC(=O)[C@H](Cc2c[nH]cn2)NC1=O) | 0.177 | 0.0006
Ac-EH[dF]RW[Orn]PPRDK(biscarboxymethyl)K(X3)-NH2 (lactam 1-6) | 3.97 | 0.0058
Ac-[Dab]H[dF]RWDPSSSK(biscarboxymethyl(3))SS-X5 (lactam 1-6) | 9.13 | 0.0108
Ac-EH[dF]RW[Orn][dP][dP]RDK(biscarboxymethyl(3))K([AEEA-Palmitoyl(16-(5-tetrazolyl))])-NH2 (lactam 1-6) | 8.84 | 0.0046
Ac-EH[dF]RW[Dab]PPRDK(biscarboxymethyl(3))K([AEEA-Palmitoyl(16-(5-tetrazolyl))])-NH2 (lactam 1-6) | 3.42 | 0.039
Ac-[Orn]H[dF]RWDPPREK(biscarboxymethyl)K(X3)-NH2 (lactam 1-6) | 2.14 | 0.0022
Ac-[Orn]H[dF]RWDPSSSK(bis(carboxymethyl))SSK([AEEA-C18 diacid])-NH2 (lactam 1-6) | 0.141 | 0.0008
Ac-[Orn]H[dF]RWDPSSSK(bis(carboxymethyl))SSK([AEEA-Palmitoyl(16-(5-tetrazolyl))])-NH2 (lactam 1-6) | 5.61 | 0.0009
Ac-[hCys]H[dF]RWCPPKD[Dap](NTA)K([AEEA-Palmitoyl(16-(5-tetrazolyl))])-NH2 (disulfide 1-6; SMILES CC(=O)N[C@H]1CCSSC[C@@H](C(=O)N2CCC[C@H]2C(=O)N2CCC[C@H]2C(=O)N[C@@H](CCCCN)C(=O)N[C@@H](CC(=O)O)C(=O)N[C@@H](CNC(=O)CN(CC(=O)O)CC(=O)O)C(=O)N[C@@H](CCCCNC(=O)COCCOCCNC(=O)CCCCCCCCCCCCCCCc2nnn[nH]2)C(N)=O)NC(=O)[C@H](Cc2c[nH]c3ccccc23)NC(=O)[C@H](CCCNC(=N)N)NC(=O)[C@@H](Cc2ccccc2)NC(=O)[C@H](Cc2c[nH]cn2)NC1=O) | 7.54 | 0.00064
Ac-DH[dF]RWKPPRD[Lys(CH2CO2H)2]K([AEEA-Palmitoyl(16-(5-tetrazolyl))])-NH2 (lactam 1-6; SMILES CC(=O)N[C@H]1CC(=O)NCCCC[C@@H](C(=O)N2CCC[C@H]2C(=O)N2CCC[C@H]2C(=O)N[C@@H](CCCNC(=N)N)C(=O)N[C@@H](CC(=O)O)C(=O)N[C@@H](CCCCN(CC(=O)O)CC(=O)O)C(=O)N[C@@H](CCCCNC(=O)COCCOCCNC(=O)CCCCCCCCCCCCCCCc2nnn[nH]2)C(N)=O)NC(=O)[C@H](Cc2c[nH]c3ccccc23)NC(=O)[C@H](CCCNC(=N)N)NC(=O)[C@@H](Cc2ccccc2)NC(=O)[C@H](Cc2c[nH]cn2)NC1=O) | 0.279 | 0.013
Ac-EH[dF]RW[Orn]PPRDK(biscarboxymethyl)K(X6)-NH2 (lactam 1-6) | 4.69 | 0.0009
Ac-DH[dF]RW[Dab]PPRDK(biscarboxymethyl(4))K(X2)-NH2 (lactam 1-6) | 5.15 | 0.00133
Ac-DH[dF]RW[Orn]PPRDK(biscarboxymethyl(3))K([AEEA-Palmitoyl(16-(5-tetrazolyl))])-NH2 (lactam 1-6) | 2.54 | 0.033
Ac-DH[dF]RW[Dap]PPRDK(NTA)K(X2)-NH2 (lactam 1-6; SMILES CC(=O)N[C@H]1CC(=O)NC[C@@H](C(=O)N2CCC[C@H]2C(=O)N2CCC[C@H]2C(=O)N[C@@H](CCCNC(=N)N)C(=O)N[C@@H](CC(=O)O)C(=O)N[C@@H](CCCCNC(=O)CN(CC(=O)O)CC(=O)O)C(=O)N[C@@H](CCCCNC(=O)COCCOCCNC(=O)CCCCCCCCCCCCCCCc2nn[nH]n2)C(N)=O)NC(=O)[C@H](Cc2c[nH]c3ccccc23)NC(=O)[C@H](CCCNC(=N)N)NC(=O)[C@@H](Cc2ccccc2)NC(=O)[C@H](Cc2c[nH]cn2)NC1=O) | 7.98 | 0.107
Ac-EH[dF]RW[Orn]PPHDK(biscarboxymethyl)K(X2)-NH2 (lactam 1-6) | 5.17 | 0.00358
Ac-[Orn]H[dF]RWDPPREK(biscarboxymethyl)K(X6)-NH2 (lactam 1-6) | 1.94 | 0.0008
